# Test results published in paper PMC3001161 (Molecular cell, 2010).
# T1: Dcn1 potentiating neddylation (PONY) domain, Dcn1^P (budding yeast, UniProt Q12395 70-269)
# T1 sequence (looked up): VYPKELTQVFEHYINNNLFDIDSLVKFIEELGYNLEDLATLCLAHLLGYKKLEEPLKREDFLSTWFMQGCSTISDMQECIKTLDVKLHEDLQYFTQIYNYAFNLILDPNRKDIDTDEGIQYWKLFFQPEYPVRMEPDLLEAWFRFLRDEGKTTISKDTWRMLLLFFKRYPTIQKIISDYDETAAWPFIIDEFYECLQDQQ
# B1: isolated Cdc53 WHB subdomain (Cdc53^WHB) (domain or fragment, budding yeast, UniProt Q12018 730-815, looked up)
# chain: NKRLTEDERIEKELNTERQIFLEACIVRIMKAKRNLPHTTLVNECIAQSHQRFNAKVSMVKRAIDSLIQKGYLQRGDDGESYAYLA
# Experiments:
# Assay in all cases: ITC
# [1] = target: Cdc53^C+-Hrt1^ΔR complex (budding yeast)
# [2] = target: T1, Dcn1 potentiating neddylation (PONY) …
# [3] = target: Cdc53^C+-Hrt1 complex (budding yeast) (UniProt Q12018)
# [4] = target: B1
stoichiometry N [1],Kd [2],stoichiometry N [3],stoichiometry N [4],Binder
1,,,,"Dcn1 potentiating neddylation (PONY) domain, Dcn1^P (domain or fragment) VYPKELTQVFEHYINNNLFDIDSLVKFIEELGYNLEDLATLCLAHLLGYKKLEEPLKREDFLSTWFMQGCSTISDMQECIKTLDVKLHEDLQYFTQIYNYAFNLILDPNRKDIDTDEGIQYWKLFFQPEYPVRMEPDLLEAWFRFLRDEGKTTISKDTWRMLLLFFKRYPTIQKIISDYDETAAWPFIIDEFYECLQDQQ"
,227 nM,,,B1
1,,1,1,"full-length Dcn1 (natural protein, budding yeast, UniProt Q12395 1-269, looked up) MSNNKIKRKDASPEQEAIESFTSLTKCDPKVSRKYLQRNHWNINYALNDYYDKEIGTFTDEVSTVAHPPVYPKELTQVFEHYINNNLFDIDSLVKFIEELGYNLEDLATLCLAHLLGYKKLEEPLKREDFLSTWFMQGCSTISDMQECIKTLDVKLHEDLQYFTQIYNYAFNLILDPNRKDIDTDEGIQYWKLFFQPEYPVRMEPDLLEAWFRFLRDEGKTTISKDTWRMLLLFFKRYPTIQKIISDYDETAAWPFIIDEFYECLQDQQ"
